Data published in patent US20250346673A1 (DUALITY BIOLOGICS SUZHOU, published 2025).
Substitutions are numbered along the chain they refer to. Each block holds one binder with its values, some of them ahead of it.

Legend:
[1] = target: T1, human BDCA2 (human, UniProt Q8WTT0 1-213); assay: FACS on CHOK1-hBDCA2 cells; EC50 table under the plot, unit from the x axis (nM)
T1 construct: whole, on cells; also called hBDCA2; Blood dendritic cell antigen 2
T1 sequence (looked up): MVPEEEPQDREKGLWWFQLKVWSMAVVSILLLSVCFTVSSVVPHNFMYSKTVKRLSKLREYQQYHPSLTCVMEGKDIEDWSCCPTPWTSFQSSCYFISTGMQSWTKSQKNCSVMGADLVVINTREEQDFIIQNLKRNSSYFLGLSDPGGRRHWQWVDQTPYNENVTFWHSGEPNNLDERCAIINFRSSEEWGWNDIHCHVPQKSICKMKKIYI
Experimental: The cells were recovered and resuspended to 2×10⁶/mL with FACS buffer (PBS+2% FBS). The cells were added to 3799 cell plates (Corning) at 100 μL/well, and the supernatant was discarded after centrifugation at 300 g. The antibodies were serially diluted with FACS buffer (Id.), the diluted antibodies were added to centrifuged cells and the cells were resuspended. The cells were incubated at 4° C. for 1 h. The incubated cells were centrifuged at 300 g for 5 min and washed twice with FACS buffer. 100 μL […] anti-Human IgG (H+L) Cross-Adsorbed Secondary Antibody-Alexa Fluor 488 (Sigma, A11013; 1:1000) secondary antibody was added, washed twice with FACS buffer after incubation at 4° C. for 1 h, resuspended with PBS, analyzed with FACS (BD FACS CantoTM II) instrument and curve fitted with GraphPad Prism6, and EC₅₀ values were calculated.

[2] = target: T2, cynomolgus BDCA2 (cynomolgus monkey, UniProt A0A2K5UWP4 1-212); assay: FACS on 293F-cynoBDCA2 cells; EC50 table under the plot, unit from the x axis (nM) [continued) e.]
T2 construct: whole, on cells; also called Cyno BDCA2; cynoBDCA2
T2 sequence: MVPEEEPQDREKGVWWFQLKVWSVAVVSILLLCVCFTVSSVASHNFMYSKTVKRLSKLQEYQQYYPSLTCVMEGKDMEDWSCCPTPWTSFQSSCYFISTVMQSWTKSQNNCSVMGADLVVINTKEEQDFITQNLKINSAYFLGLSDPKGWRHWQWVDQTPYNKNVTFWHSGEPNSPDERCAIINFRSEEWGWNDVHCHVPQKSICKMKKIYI
Experimental: (§1) The cells were recovered and resuspended to 2×10⁶/mL with FACS buffer (PBS+2% FBS). The cells were added to 3799 cell plates (Corning) at 100 μL/well, and the supernatant was discarded after centrifugation at 300 g. The antibodies were serially diluted with FACS buffer (Id.), the diluted antibodies were added to centrifuged cells and the cells were resuspended. The cells were incubated at 4° C. for 1 h. The incubated cells were then centrifuged at […] for 5 min and washed twice with FACS buffer. 100 μL Donkey anti-Mouse IgG (H+L) Highly Cross-Adsorbed Secondary Antibody-Alexa Fluor 488 (Invitrogen, A21202; 1:1000) secondary antibody was added to the cells, which were washed twice with FACS buffer after incubation at 4° C. for 1 h, resuspended with PBS, analyzed with FACS (BD FACS CantoTM II) instrument. The curve was fitted with GraphPad Prism6, and EC₅₀ values were calculated.

[3] = target: T1, human BDCA2; assay: cell-based or functional assay
[4] = target: T1, human BDCA2; assay: FACS on CHOK1-hBDCA2 cells; EC50 table under the plot, unit from the x axis (nM) [continued) e.]
Experimental: as §1

[5] = target: T3, human FcγRIIA (R167) (human, UniProt P12318 36-218, limits assumed, biotinylated (site not stated)); assay: SPR (BIAcore 8K), biotinylated FcγRIIA (R167) on SA chip, antibody as analyte, 1:1 binding
T3 construct: also called Fe γ RIIA(R167); Fcγ RIJA (R167)
T3 sequence (looked up): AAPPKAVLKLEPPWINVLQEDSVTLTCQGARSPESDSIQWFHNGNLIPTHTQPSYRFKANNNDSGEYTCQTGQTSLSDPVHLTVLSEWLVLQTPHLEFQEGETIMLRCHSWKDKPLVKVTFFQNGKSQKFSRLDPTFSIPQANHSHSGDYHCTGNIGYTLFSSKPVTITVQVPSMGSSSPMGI
Experimental: (§2) Antibody kinetics or affinity parameters were measured using BIAcore 8K and freshly fixed biotinylated human Fe γ RIIA(R167)/Fc γ RIIA (H167) SA chips. The experiment was run at 25° C. with a running buffer of 1×HBS-EP+(10 mM HEPES pH 7.4, 150 mM NaCl, 3 mM EDTA, 0.05% Surfactant P20). […] The binding and dissociation times of the antibody were 60 and 90 seconds, respectively. Two zero concentration samples are used to remove background signals. The sample was injected in a multi cycle manner, the analyte can be fully dissociated from the chip surface at the end of each cycle, and no regeneration step was applied. Data analysis was perform using Biacore Insight Evaluation Software (Version 2.0.15.12933). After deducting the reference channel (flow cell 1) and two zero concentration signals, affinity analysis was performed using a 1:1 binding model or steady-state model for curve fitting and calculation of kinetic parameters.

[6] = target: T4, human FcγRIIA (H167) (human, UniProt P12318 36-218, limits assumed, biotinylated (site not stated)); assay: SPR, FcγRIIA (H167); against the wild-type Fc antibody Hu033-20
T4 construct: also called Fey RIIA (H167)
T4 sequence (looked up): T3 sequence (looked up) with R132H
Experimental: as §2

[7] = target: T3, human FcγRIIA (R167); assay: SPR, FcγRIIA (R167); against the wild-type Fc antibody Hu033-20
Experimental: as §2

[8] = target: T4, human FcγRIIA (H167); assay: SPR (BIAcore 8K), biotinylated FcγRIIA (H167) on SA chip, antibody as analyte, 1:1 binding
Experimental: as §2

[9] = target: T5, Human BDCA2 Fc recombinant protein (human); assay: ELISA, coated humanBDCA2 Fc
T5 construct: Human IgG1 Fc N-terminal of the BDCA2 extracellular domain (Asn45-Ile213), fused by a linker; also called BDCA2-Fc protein
Experimental: HumanBDCA2 Fc protein or cynoBDCA2 His protein was diluted with PBS to 1 μg/mL and added to ELISA microplates at 100 μL/well and incubated at 4° C. overnight. The plates were blocked with ELISA blocking solution (PBS phosphate buffer with 1% BSA, pH 7.4, the percentages representing mass percentages) at 37° C. for 2 hours. Sequential 10-fold serial dilutions of antibodies were added at 8 concentrations (0.0001 nM-100 nM, including 0 point control) in total at 100 μL/well. The plates were incubated at 37° C. for 1 hour, then washed 3 times and after anti-mouse IgG (Fab specific)-HRP (Sigma, A3682; 1: 5000 dilution) secondary antibodies were added at 100 μL/well, were incubated at 37° C. for 1 h. The plates were washed 3 times, TMB development fluid (EL0009, Huzhou Ying Chuang Biotechnology) was added at 100 μL/well and 50 μL 1N hydrochloric acid was added after incubation at 37° C. for 10 min to stop the development reaction. OD450 nm values were read with ELISA plate reader and the curve was fitted with GraphPad Prism6, and EC₅₀ values were calculated.

EC50 [1]: 1.9 nM
B1: mab001c (antibody, V domains shown)
VH: QIQLVQSGPELKKPGETVKISCKASGYTFTDFSMHWVKQAPGKGLKWMGWINTETGEPTYADDFKGRFAFSLETSASTAFLQINNLKNDDTTTYFCSRGGDGHPYWYFAVWGAGTTVTVSS
VL: DIVLTQSPASLAVSLGQRATISCRASQSVSTSSYSYMHWYQQKPGQPPKLLIKYASILESGVPARFSGSGSGTDFTLNIHPVEEEDTATYYCQHSWEIPFTFGSGTKLEIK

EC50 [2]: 1.18 nM | IC50 for inhibiting cytokine IFNα release, CpG-A stimulated human PBMC [3]: 0.00408 nM | EC50 [4]: 0.388 nM
B2: mAb033 (antibody, V domains shown)
VH: EVQMVESGGDLVKPGDSLKLSCAASGFTFRSYGMSWVRQTPDKRLEWVATISSGDSYTYYPDSVKGRFTISRDNAKNTLYLQMSSLKSEDTALYYCARQIYYDYAYYFDFWGQGTTLTVSS
VL: DIVLTQSPASLAVSLGQRATISCRASESVSFRTSHLMHWYQQKPGQPPKLLIYGASNLESGVPARFSGSGSETDFTLNIHPVEEEDAAAYFCQQSIEDPPTFGGGTKLEIK
notes: Mouse hybridoma antibody

Kd [5]: 312 nM | koff [5]: 0.249 s⁻¹ | kon [5]: 798000 M⁻¹ s⁻¹ | Multiple of affinity [6]: 2.5 fold | Multiple of affinity [7]: 5.1 fold | Kd [8]: 489 nM | koff [8]: 0.242 s⁻¹ | kon [8]: 494000 M⁻¹ s⁻¹
B3: Hu033-20-T1 (antibody, human IgG1, kappa)
heavy: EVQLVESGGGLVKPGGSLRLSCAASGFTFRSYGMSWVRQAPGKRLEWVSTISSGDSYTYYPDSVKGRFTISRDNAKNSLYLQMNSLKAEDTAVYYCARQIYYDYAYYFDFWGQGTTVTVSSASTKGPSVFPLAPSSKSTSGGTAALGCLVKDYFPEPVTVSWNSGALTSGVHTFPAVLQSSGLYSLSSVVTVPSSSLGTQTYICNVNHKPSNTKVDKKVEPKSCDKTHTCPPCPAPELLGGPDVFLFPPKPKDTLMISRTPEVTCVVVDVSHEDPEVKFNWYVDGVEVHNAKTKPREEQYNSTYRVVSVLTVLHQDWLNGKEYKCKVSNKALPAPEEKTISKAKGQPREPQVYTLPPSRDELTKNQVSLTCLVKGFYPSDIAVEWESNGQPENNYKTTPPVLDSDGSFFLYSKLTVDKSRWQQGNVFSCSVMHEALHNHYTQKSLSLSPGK
light: DIVMTQSPDSLAVSLGERATINCRASESVSFRTSHLMHWYQQKPGQPPKLLIYGASNLESGVPDRFSGSGSGTDFTLTISSLQAEDVAVYYCQQSIEDPPTFGGGTKVEIKRTVAAPSVFIFPPSDEQLKSGTASVVCLLNNFYPREAKVQWKVDNALQSGNSQESVTEQDSKDSTYSLSSTLTLSKADYEKHKVYACEVTHQGLSSPVTKSFNRGEC
notes: Fc-mutated Hu033-20 (IgG1)

Kd [5]: 279 nM | koff [5]: 0.191 s⁻¹ | kon [5]: 683000 M⁻¹ s⁻¹ | Multiple of affinity [6]: 8.7 fold | Multiple of affinity [7]: 6.3 fold | Kd [8]: 154 nM | koff [8]: 0.087 s⁻¹ | kon [8]: 563000 M⁻¹ s⁻¹
B4: Hu033-20-T3 (antibody, human IgG1, kappa)
heavy: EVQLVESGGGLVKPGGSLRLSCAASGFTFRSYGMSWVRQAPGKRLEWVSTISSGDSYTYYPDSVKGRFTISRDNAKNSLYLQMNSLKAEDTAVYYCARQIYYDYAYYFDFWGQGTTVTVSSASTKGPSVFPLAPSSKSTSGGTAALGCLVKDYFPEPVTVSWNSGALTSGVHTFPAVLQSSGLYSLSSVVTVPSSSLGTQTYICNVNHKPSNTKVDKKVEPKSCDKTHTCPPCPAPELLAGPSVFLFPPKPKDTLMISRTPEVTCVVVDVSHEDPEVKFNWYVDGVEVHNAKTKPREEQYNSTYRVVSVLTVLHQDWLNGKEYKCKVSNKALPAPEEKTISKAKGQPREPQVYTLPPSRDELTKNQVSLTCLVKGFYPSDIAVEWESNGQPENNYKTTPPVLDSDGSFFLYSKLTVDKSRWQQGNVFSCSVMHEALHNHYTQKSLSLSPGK
light: B3 light
notes: Fc-mutated Hu033-20 (IgG1)

Kd [5]: 41.1 nM | koff [5]: 0.0821 s⁻¹ | kon [5]: 2e+06 M⁻¹ s⁻¹ | Multiple of affinity [6]: 12.1 fold | Multiple of affinity [7]: 17.7 fold | Kd [8]: 95.5 nM | koff [8]: 0.0577 s⁻¹ | kon [8]: 604000 M⁻¹ s⁻¹
B5: Hu033-20-T2 (antibody, human IgG1, kappa)
heavy: EVQLVESGGGLVKPGGSLRLSCAASGFTFRSYGMSWVRQAPGKRLEWVSTISSGDSYTYYPDSVKGRFTISRDNAKNSLYLQMNSLKAEDTAVYYCARQIYYDYAYYFDFWGQGTTVTVSSASTKGPSVFPLAPSSKSTSGGTAALGCLVKDYFPEPVTVSWNSGALTSGVHTFPAVLQSSGLYSLSSVVTVPSSSLGTQTYICNVNHKPSNTKVDKKVEPKSCDKTHTCPPCPAPELLAGPDVFLFPPKPKDTLMISRTPEVTCVVVDVSHEDPEVKFNWYVDGVEVHNAKTKPREEQYNSTYRVVSVLTVLHQDWLNGKEYKCKVSNKALPAPEEKTISKAKGQPREPQVYTLPPSRDELTKNQVSLTCLVKGFYPSDIAVEWESNGQPENNYKTTPPVLDSDGSFFLYSKLTVDKSRWQQGNVFSCSVMHEALHNHYTQKSLSLSPGK
light: B3 light
notes: Fc-mutated Hu033-20 (IgG1)

EC50 [2]: 1.96 nM | EC50 [4]: 0.705 nM | EC50 [9]: < 0.3 nM
B6: mAb034 (antibody, V domains shown)
VH: DVQLQESGPGLVKPSQSLSLTCSVTGYSITSGYYWNWIRQFPGNKLECMGYITYDGSNNYNPSLKDRISITRDTSKNQFFLKLNSVTTEDTATYYCARGGDYDDGGFAYWGHGTLVTVSA
VL: DIQMTQSPVSLSASVGETVTITCRASGNIHNYLAWYQQKQGKSPQLLVYNAKSLVDGVPSRFSGSGSGTQYSLKINSLQPEDFGSYYCQHFWIIPYTFGGGTKLEIK
notes: Mouse hybridoma antibody
